Reference: publication PMC5161705 (Nature, 2016)

B1: MBP^29–99 (domain or fragment)
chain: not shown
B2: MBP^160–201 (domain or fragment)
chain: not shown
B3: MBP^260–336 (domain or fragment)
chain: not shown
B4: SecB (natural protein)
chain: MSEQNNTEMTFQIQRIYTKDISFEAPNAPHVFQKDWQPEVKLDLDTASSQLADDVYEVVLRVTVTASLGEETAFLCEVQQGGIFSIAGIEGTQMAHCLGAYCPNILFPYARECITSMVSRGTFPQLNLAPVNFDALFMNYLQQQAGEGTEEHQDA
B5: MBP^331–396 (domain or fragment)
chain: not shown
B6: MBP^67–99 (domain or fragment)
chain: not shown
B7: triple mutant SecB (SecB™), V40A/L42A/L44A (natural protein)
chain: MSEQNNTEMTFQIQRIYTKDISFEAPNAPHVFQKDWQPEAKADADTASSQLADDVYEVVLRVTVTASLGEETAFLCEVQQGGIFSIAGIEGTQMAHCLGAYCPNILFPYARECITSMVSRGTFPQLNLAPVNFDALFMNYLQQQAGEGTEEHQ
B8: MBP^198–265 (domain or fragment)
chain: not shown
B9: MBP^97–164 (domain or fragment)
chain: not shown

How the values were obtained:
SecB = molecular target: B4; assay: NMR titration
NMR structure = molecular target: the molecule itself; assay: NMR structure
[1] = molecular target: maltose binding protein (MBP), MBP^1–396 (E. coli, UniProt P0AEX9 1-396 = MBP); assay: SEC-MALS
[2] = molecular target: T1, alkaline phosphatase (PhoA) (E. coli, UniProt P00634 1-471 = phosphatase); assay: SEC-MALS
[3] = molecular target: T1, alkaline phosphatase (PhoA); assay: ITC

Binder | binding result (SecB) | also measured
B1 | binds | 
B2 | binds | 
B3 | binds | 
B4 |  | binding result (NMR structure): binds; stoichiometry N [1]: 1 SecB:MBP; stoichiometry N [2]: 1 SecB:PhoA
B5 | binds | 
B6 | binds | 
B7 |  | fold reduction in affinity against wild type SecB [3]: 40 fold
B8 | binds | 
B9 | binds | 
